For 98 substances, amyloid nucleation score results are on record in the supplement of paper PMC12042874.

The nature of the data set: amyloid nucleation score (Sup35N fusion, yeast selection) (log enrichment); library NNK3; higher = more nucleation; inactive = no reads after selection. In a few lines:
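In psi-negative yeast, Sup35N fusions carrying peptides of 20 random codons were induced with 100 μM copper sulfate for 24 hours. The cells then grew 7 days at 30°C on medium lacking adenine and uracil, and plasmid inserts from input and output were Illumina-sequenced, excluding sequences with under 100 input reads. Nucleation score is the DiMSum log enrichment of output over input reads, centred on the mode score of non-aggregating sequences.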

± gives the uncertainty stated by the source.

As for YFGDPVLNASLVIVLHLYWL, the amyloid nucleation score came out at 1.21 ± 0.078.
DICRFNWMFHF came in with an amyloid nucleation score of 1.3 ± 0.11.
RCYYMAMVMYTLLPLLRAET returned an amyloid nucleation score of -0.074 ± 0.32.
As for VIRVTWGYNWNNYVKHVYRS, the figure is 0.35 ± 0.55; as for GNSNTMSVLRCFLNPFPLVW, “inactive”; as for TVLVGDMVVR, “inactive”.
Turning to RCVLSNSNLCFKFFRVQTME, the amyloid nucleation score entry was “inactive”.
As for TVTGFTCNGCFHAVNSVVLT, the figure is 0.002 ± 0.8.
The substance TTSRNRIGRGLCGLAS came in with an amyloid nucleation score of -0.115 ± 0.48.
Regarding YFIALCINSDKPPVHGVAVV, the amyloid nucleation score entry is “inactive”.
As for SVLVDY, the entry is “inactive”; as for SLDLNCQIMLYKSMRCDEE, 1.61 ± 0.064.
In the case of FQVYFLSVYACRCLMARLGS, the amyloid nucleation score result is “inactive”.
As for HSYFDFYSYDSYNVRHRSVK, the entry is “inactive”; as for CLTLYRHQ, 0.313 ± 0.54.
As to LYIWSIGLLEQLGNGMQASR, the amyloid nucleation score entry was “inactive”.
As to FRRLSFMVVFGERKGVVSLG, the amyloid nucleation score result was “inactive”.
In the case of TAFNHRMPGDLWRDDGGARV, the amyloid nucleation score stood at 0.784 ± 0.24.
Regarding LMKWALNTELKMG, the amyloid nucleation score entry is “inactive”.
As for TWRYWFKLESYNVYWRLLPA, the figure is -0.582 ± 1.
Consider SLNER, for which the amyloid nucleation score result was “inactive”.
For the substance HKEVMKNLCIFYPTDEMYRV, the amyloid nucleation score entry was “inactive”.
Consider GGCIGGSYSLERMFYSRVDE, for which the amyloid nucleation score result is “inactive”.
As for TSNTGVSVSRFTFSVDRSVG, the entry is “inactive”; as for ISLLYVFMLNR, 2.11 ± 0.078.
As for ALQLHWYYRDTRRRCFTVCV, the entry is “inactive”; as for YDWKNL, “inactive”; as for FNGRLVLHHRTVI, “inactive”.
As for PWLLVIIVLFGLYCRM, the amyloid nucleation score result is “inactive”.
As for FDVKDWPSNNWRSLGNSRVC, the entry is “inactive”; as for IYCYRLALF, “inactive”; as for MFDLYN, “inactive”.
As for ALMMRLFFRIRSTMCCWVCS, the entry is “inactive”; as for CCIKGHFPSSFGSWAKYLHV, “inactive”; as for SCTLQNFRGLKNSFYGYYAT, “inactive”.
For the substance MIKVLCTLFIDWAVAYVICH, the amyloid nucleation score result was “inactive”.
As for VDEIWMGGLFCILYVSEVHK, the entry is “inactive”; as for GCGRCFL, “inactive”.
As for RGAIIFGKTMIYDSC, the entry is “inactive”; as for RVPGVCVYLCNEVACSTLCI, 2.03 ± 0.079; as for DCGSSCKSYPGKVVDNEMDE, “inactive”.
As for TDISLCNLGKHKVLRGL, the entry is “inactive”; as for CCLYTVNNSDSLVNTTVGVG, “inactive”.
Turning to NCIYLVLN, the amyloid nucleation score result is “inactive”.
As for TERESMCFLYWVSRRHYTGN, the figure is -0.541 ± 0.55; as for TCNKLIVRLCDAHKERA, 0.745 ± 0.13.
Take HWLTSSVKSLTPRSGQKGLD: the amyloid nucleation score result was “inactive”.
As to PRDGERFLG, the amyloid nucleation score result was “inactive”.
For LNRLSCFSCPLFV, the amyloid nucleation score result was “inactive”.
Regarding AVDQGGLAYRGRRC, the amyloid nucleation score entry was “inactive”.
Consider RQVFNAIAFFVLHR, for which the amyloid nucleation score was -0.299 ± 0.69.
For the substance FSIWKV, the amyloid nucleation score entry is “inactive”.
As for IVKNDGNGHLLYTLCVFRFW, the entry is “inactive”; as for HYCMRN, “inactive”.
For SSSMCYRCDLSMFLGSGRSG, the amyloid nucleation score entry is “inactive”.
As for VQWSEMTAFTGFFSVYISSG, the entry is “inactive”; as for VVWDGMQIGSWPQ, “inactive”.
Consider EIVRRSSVISCHRT, for which the amyloid nucleation score result was “inactive”.
Regarding VCMEMLEHIMIWFNSVDT, the amyloid nucleation score entry was “inactive”.
As for FYSWCR, the entry is “inactive”; as for VYYKVKEHVGWVFVSVVCIV, “inactive”.
As for SITSAPSLYMSGFTKVCSGE, the entry is “inactive”; as for ESQISEN, “inactive”; as for YGFFKAARRMRIS, “inactive”.
Take AFFSFNAD: the amyloid nucleation score result is “inactive”.
As for LCECR, the entry is “inactive”; as for VVLDYVSYAVIHGWEM, “inactive”; as for VMAYRHAGRRFSDPKSIKIS, “inactive”.
As to VGPALNVVSWELV, the amyloid nucleation score entry is “inactive”.
On to FITTCRILWVRCTGIVNDFL, for which the amyloid nucleation score entry was “inactive”.
As for DTYFTVCSLWGPV, the figure is 0.999 ± 0.12.
As for FIRARLLRHHTLARNAYVLR, the entry is “inactive”; as for NCICDIYILTLELSLLRRWV, “inactive”.
As for LAGCNPLASARFVWVI, the entry is “inactive”.
In the case of LPLMDKLR, the amyloid nucleation score result was “inactive”.
As for YGVESAYKCRNVYFLYWCML, the figure is 0.511 ± 0.13.
In the case of KGMDMVI, the amyloid nucleation score entry was “inactive”.
On to CAITAQARV, for which the amyloid nucleation score entry was “inactive”.
As for VAGLSRHIRIFHYYHSRARF, the entry is “inactive”; as for WLLTM, “inactive”; as for ECENMHDTKDLGLTDGVYII, “inactive”.
With MSLHCDHIAEGNELWGDVRR, the amyloid nucleation score entry is “inactive”.
In the case of NLEYDPIRHRNVLNPSWFCS, the amyloid nucleation score entry is “inactive”.
As to GWVYDMVYYRSVKMGCAKRS, the amyloid nucleation score came out at 0.389 ± 0.22.
As for WTFNLFFNFRTFRLCCRKLV, the figure is 0.938 ± 0.096; as for YFKSSFQKSLIDEVALKGWL, 0.224 ± 0.54.
With CLGNENVELVSTNVVYRYIS, the amyloid nucleation score result is “inactive”.
As for LSSCLSRI, the entry is “inactive”.
As for ILLCRKYWFFRFTMVV, the entry is “inactive”; as for THTSAKDHRVDWLSQL, “inactive”; as for VTICISPAHLFAS, “inactive”.
As for NDHPVNSWPVGYSADINQVL, the entry is “inactive”; as for GVYSVSLLVLWMSMRASIAC, “inactive”; as for YLDFVFGLRTRDNYLWVRPT, “inactive”.
FSLFFLCIFFDNRTKFMCLA: the amyloid nucleation score result is “inactive”.
As for YHRRLSTVLMGCMNRGLNYL, the entry is “inactive”; as for YRVKPFKWKYARRRLVIRWV, “inactive”.
As for INQGLTWMLDRPSKFAFVAV, the entry is “inactive”.
